Measurements reported in patent publication US20220290147A1, “SYSTEM FOR REGULATING GENE EXPRESSION” (Baylor College of Medicine, priority 2019, published 2022).

What was measured:
293T cells = test: Luciferase assay: tetracycline-induced transgene expression (induction in fold) from polyA aptamer constructs; format: cell-based, human
Protocol: Cells were seeded in 96-well plates at a density of 25000-30000 cells/well. After 24 hours of incubation, each well was transfected with 50 ng of DNA vectors and were incubated with culture medium containing none or various concentration of tetracycline for an additional 18 hours. Luciferase activity was measured in relative light units (RLU) with a Polarstar Omega plate reader (BMG Labtech, USA). To make 36 mL of assay buffer, 144 μL 1M DTT, 108 μL M ATP, 252 μL 0.1M luciferin and 360 μl 0.05M CoA were added to 35 mL of basic buffer (25 mM Tricine, 0.5 mM EDTA-Na2, 0.54 mM Na-triphosphate, 16.3 mM MgSO4.7H2O, and 0.8% Triton X-100). After the cell medium was removed, 40 μL of assay buffer was added to each well, and luciferase activity was read twice with the Polarstar Omega plate reader. Induction in fold is calculated as the ratio of transgene expression in the presence vs absence of tetracycline.

alternative splicing = test: RT-PCR of tetracycline-induced alternative splicing; format: cell-based; conditions: presence of Tc, compared to Y196CAA-2MAZ
Protocol: Cells transfected with the respective constructs were grown 18 hours at 37° C. in medium in the absence or presence of tetracycline. Total RNA was isolated according to the protocol supplied with RiboPure™ RNA Purification Kit (Ambion, Austin, Tex.). For RT-PCR, RT was performed using SuperScript III (invitrogen, Carlsbad, Calif.) according to manufacturer's protocol and PCR was performed using the primers targeting the beginning of the transcript and reporter gene.

B1: Y208: SEQ ID NO: 7; polyA switch construct (nucleic acid)
DNA: TGGAGACGCCATCCACGCTGTTTTGACCTCCATAGAAGACACCGGGACCGATCCAGCCTCCCCTCGAAGCTGATCCTGAGAACTTCAGGGTGAGTCTATGGGACCCTTGATGTTTTCTTTCCCCTTCTTTTCTATGGTTAAGTTCATGTCATAGGAAGGGGAGAAGTAACAGGGTACACATATTGACCAAATCAGGGTAATTTTGCATTTGTAATTTTAAAAAATGCTTTCTTCTTTTAATATACTTTTTTGTTTATCTTATTTCTAATACTTTCCCTAATCTCTTTCTTTCAGGGCAATAATGATACAATGTATCATGCCTCTTTGCACCATTCTAAAGAATAACAGTGATAATTTCTGGGTTAAGGCAATAGCAATATTTCTGCATATAAATATTTCTGCATATAAATTGTAACTGATGTAAGAGGTTTCATATTGCTAATAGCAGCTACAATCCAGCTACCATTCTGCTTTTATTTTATGGTTGGGATAAGGCTGGATTATTCTGAGTCCAAGCTAGGCCCTTTTGCTAATCATGTTCATACCTCTTATCTTCCTCCCACAGCTCCTGGGCAACGTGCTGGTCTGTGTGCTGGCCCATCACTTTGGCAAAGAATTGGCTAGCCACACACACAAATCTGGGGAGGTGAAGAATACGACCACCTGCGTTTTATACTTCCGCGAGATCTGGGGAGGTGAAGAATACGACCACCTAATAAGATTACCGAAAGGCAATCTTATTAAAACATACCAGATCTTGCGAGGGTGTTTGTGGCAAAACATACCAGATCGAATTCGATCTGGGGAGGTGAAGAATACGACCACCTGCTACAAGTACCTAATAAAGTATAAAGTGCAAAACATACCAGATCTGTGTGTTGGTTTTTTGTGTGTTAACGGGGGAGGGGGAGGAAAGGGGGAGGGGGAGGAAAGGGGGAGGGGGAGGAAAGGGGGAGGGGGAGCGGCCGCCAACAACAACAACAACAACAACAACAACAACAACAACAACATAACAGTGTTCACTAGCAACCTCAAACAGACACCATG
293T cells
  effect on induction of inserting CAA repeats in the 5′UTR of the named construct: higher induction

B2: Y209: SEQ ID NO: 8; polyA switch construct (nucleic acid)
DNA: TCAGATCGCCTGGAGACGCCATCCACGCTGTTTTGACCTCCATAGAAGACACCGGGACCGATCCAGCCTCCCCTCGAAGCTGATCCTGAGAACTTCAGGGTGAGTCTATGGGACCCTTGATGTTTTCTTTCCCCTTCTTTTCTATGGTTAAGTTCATGTCATAGGAAGGGGAGAAGTAACAGGGTACACATATTGACCAAATCAGGGTAATTTTGCATTTGTAATTTTAAAAAATGCTTTCTTCTTTTAATATACTTTTTTGTTTATCTTATTTCTAATACTTTCCCTAATCTCTTTCTTTCAGGGCAATAATGATACAATGTATCATGCCTCTTTGCACCATTCTAAAGAATAACAGTGATAATTTCTGGGTTAAGGCAATAGCAATATTTCTGCATATAAATATTTCTGCATATAAATTGTAACTGATGTAAGAGGTTTCATATTGCTAATAGCAGCTACAATCCAGCTACCATTCTGCTTTTATTTTATGGTTGGGATAAGGCTGGATTATTCTGAGTCCAAGCTAGGCCCTTTTGCTAATCATGTTCATACCTCTTATCTTCCTCCCACAGCTCCTGGGCAACGTGCTGGTCTGTGTGCTGGCCCATCACTTTGGCAAAGAATTGGCTAGCCACACACACAAATCTGGGGAGGTGAAGAATACGACCACCTGCGTTTTATACTTCCGCGAGATCTGGGGAGGTGAAGAATACGACCACCTAATAAGATTACCGAAAGGCAATCTTATTAAAACATACCAGATCTTGCGAGGGTGTTTGTGGCAAAACATACCAGATCGAATTCGATCTGGGGAGGTGAAGAATACGACCACCTGCTACAAGTACCTAAATAAAGTATAAAGTGCAAAACATACCAGATCTGTGTGTTGGTTTTTTGTGTGTTAACGGGGGAGGGGGAGGAAAGGGGGAGGGGGAGGAAAGGGGGAGGGGGAGGAAAGGGGGAGGGGGAGCGGCCGCCAACAACAACAACAACAACAACAACAACAACAACAACAACATAACAGTGTTCACTAGCAACCTCAAACAGACACCATG
293T cells
  effect on induction of inserting CAA repeats in the 5′UTR of the named construct: higher induction

B3: Y211: SEQ ID NO: 9; polyA switch construct (nucleic acid)
DNA: TCAGATCGCCTGGAGACGCCATCCACGCTGTTTTGACCTCCATAGAAGACACCGGGACCGATCCAGCCTCCCCTCGAAGCTGATCCTGAGAACTTCAGGGTGAGTCTATGGGACCCTTGATGTTTTCTTTCCCCTTCTTTTCTATGGTTAAGTTCATGTCATAGGAAGGGGAGAAGTAACAGGGTACACATATTGACCAAATCAGGGTAATTTTGCATTTGTAATTTTAAAAAATGCTTTCTTCTTTTAATATACTTTTTTGTTTATCTTATTTCTAATACTTTCCCTAATCTCTTTCTTTCAGGGCAATAATGATACAATGTATCATGCCTCTTTGCACCATTCTAAAGAATAACAGTGATAATTTCTGGGTTAAGGCAATAGCAATATTTCTGCATATAAATATTTCTGCATATAAATTGTAACTGATGTAAGAGGTTTCATATTGCTAATAGCAGCTACAATCCAGCTACCATTCTGCTTTTATTTTATGGTTGGGATAAGGCTGGATTATTCTGAGTCCAAGCTAGGCCCTTTTGCTAATCATGTTCATACCTCTTATCTTCCTCCCACAGCTCCTGGGCAACGTGCTGGTCTGTGTGCTGGCCCATCACTTTGGCAAAGAATTGGCTAGCCACACACACAAATCTGGGGAGGTGAAGAATACGACCACCTGCGTTTTATACTTCCACGAGATCTGGGGAGGTGAAGAATACGACCACCTAATAAGATTACCGAAAGGCAATCTTATTAAAACATACCAGATCTTGTGAGGGTGTTTGTGGCAAAACATACCAGATCGAATTCGATCTGGGGAGGTGAAGAATACGACCACCTGCTACAAGTACCTAAATAAAGTATAAAGTGCAAAACATACCAGATCTGTGTGTTGGTTTTTTGTGTGTTAACGGGGGAGGGGGAGGAAAGGGGGAGGGGGAGGAAAGGGGGAGGGGGAGGAAAGGGGGAGGGGGAGCGGCCGCCAACAACAACAACAACAACAACAACAACAACAACAACAACATAACAGTGTTCACTAGCAACCTCAAACAGACACCATG
293T cells
  effect on induction of inserting CAA repeats in the 5′UTR of the named construct: higher induction

B4: Y196CAA-4MAZ: SEQ ID NO: 6; Y-shape polyA switch construct with 4MAZ (nucleic acid)
DNA: TCAGATCGCCTGGAGACGCCATCCACGCTGTTTTGACCTCCATAGAAGACACCGGGACCGATCCAGCCTCCCCTCGAAGCTGATCCTGAGAACTTCAGGGTGAGTCTATGGGACCCTTGATGTTTTCTTTCCCCTTCTTTTCTATGGTTAAGTTCATGTCATAGGAAGGGGAGAAGTAACAGGGTACACATATTGACCAAATCAGGGTAATTTTGCATTTGTAATTTTAAAAAATGCTTTCTTCTTTTAATATACTTTTTTGTTTATCTTATTTCTAATACTTTCCCTAATCTCTTTCTTTCAGGGCAATAATGATACAATGTATCATGCCTCTTTGCACCATTCTAAAGAATAACAGTGATAATTTCTGGGTTAAGGCAATAGCAATATTTCTGCATATAAATATTTCTGCATATAAATTGTAACTGATGTAAGAGGTTTCATATTGCTAATAGCAGCTACAATCCAGCTACCATTCTGCTTTTATTTTATGGTTGGGATAAGGCTGGATTATTCTGAGTCCAAGCTAGGCCCTTTTGCTAATCATGTTCATACCTCTTATCTTCCTCCCACAGCTCCTGGGCAACGTGCTGGTCTGTGTGCTGGCCCATCACTTTGGCAAAGAATTGGCTAGCCACACACACAAATCTGGGGAGGTGAAGAATACGACCACCTGCGTTTTATACTTCCACGAGATCTGGGGAGGTGAAGAATACGACCACCTAATAAGATTACCGAAAGGCAATCTTATTAAAACATACCAGATCTTGTGAGGGTGTTTGTGGCAAAACATACCAGATCGAATTCGATCTGGGGAGGTGAAGAATACGACCACCTGCTACAAGTACCTAATAAAGTATAAAGTGCAAAACATACCAGATCTGTGTGTTGGTTTTTTGTGTGTTAACGGGGGAGGGGGAGGAAAGGGGGAGGGGGAGGAAAGGGGGAGGGGGAGGAAAGGGGGAGGGGGAGCGGCCGCCAACAACAACAACAACAACAACAACAACAACAACAACAACATAACAGTGTTCACTAGCAACCTCAAACAGACACCATG
Alternative splicing
  Tc-induced alternative splicing: far more pronounced
